The labels stand for the following.
B1: Mitochondrial import receptor subunit TOM40 (TOMM40) (natural protein)
chain: MGNVLAASSPPAGPPPPPAPALVGLPPPPPSPPGFTLPPLGGSLGAGTSTSRSSERTPGAATASASGAAEDGACGCLPNPGTFEECHRKCKELFPIQMEGVKLTVNKGLSNHFQVNHTVALSTIGESNYHFGVTYVGTKQLSPTEAFPVLVGDMDNSGSLNAQVIHQLGPGLRSKMAIQTQQSKFVNWQVDGEYRGSDFTAAVTLGNPDVLVGSGILVAHYLQSITPCLALGGELVYHRRPGEEGTVMSLAGKYTLNNWLATVTLGQAGMHATYYHKASDQLQVGVEFEASTRMQDTSVSFGYQLDLPKANLLFKGSVDSNWIVGATLEKKLPPLPLTLALGAFLNHRKNKFQCGFGLTIG
B2: Lon protease (LONP1) (enzyme)
chain: FWEASSRGGGAFSGGEDASEGGAEEGAGGAGGSAGAGEGPVITALTPMTIPDVFPHLPLIAITRNPVFPRFIKIIEVKNKKLVELLRRKVRLAQPYVGVFLKRDDSNESDVVESLDEIYHTGTFAQIHEMQDLGDKLRMIVMGHRRVHISRQLEVEPEEPEAENKHKPRRKSKRGKKEAEDELSARHPAELAMEPTPELPAEVLMVEVENVVHEDFQVTEEVKALTAEIVKTIRDIIALNPLYRESVLQMMQAGQRVVDNPIYLSDMGAALTGAESHELQDVLEETNIPKRLYKALSLLKKEFELSKLQQRLGREVEEKIKQTHRKYLLQEQLKIIKKELGLEKDDKDAIEEKFRERLKELVVPKHVMDVVDEELSKLGLLDNHSSEFNVTRNYLDWLTSIPWGKYSNENLDLARAQAVLEEDHYGMEDVKKRILEFIAVSQLRGSTQGKILCFYGPPGVGKTSIARSIARALNREYFRFSVGGMTDVAEIKGHRRTYVGAMPGKIIQCLKKTKTENPLILIDEVDKIGRGYQGDPSSALLELLDPEQNANFLDHYLDVPVDLSKVLFICTANVTDTIPEPLRDRMEMINVSGYVAQEKLAIAERYLVPQARALCGLDESKAKLSSDVLTLLIKQYCRESGVRNLQKQVEKVLRKSAYKIVSGEAESVEVTPENLQDFVGKPVFTVERMYDVTPPGVVMGLAWTAMGGSTLFVETSLRRPQDKDAKGDKDGSLEVTGQLGEVMKESARIAYTFARAFLMQHAPANDYLVTSHIHLHVPEGATPKDGPSAGCTIVTALLSLAMGRPVRQNLAMTGEVSLTGKILPVGGIKEKTIAAKRAGVTCIVLPAENKKDFYDLAAFITEGLEVHFVEHYREIFDIAFPDEQAEALAVER

The target in this assay is Apolipoprotein E4 (APOE4), overexpressed in transfected Huh7 cells (human) (UniProt P02649). Description: co-IP; APOE precipitated with anti-APOE antibody (sc-13521) and Protein G Sepharose, overnight at 4 °C, from lysates of APOE3- and APOE4-transfected Huh7 cells; Western blot, target bands normalised to the APOE signal.
Sequence of UniProt P02649 (P02649 19-317): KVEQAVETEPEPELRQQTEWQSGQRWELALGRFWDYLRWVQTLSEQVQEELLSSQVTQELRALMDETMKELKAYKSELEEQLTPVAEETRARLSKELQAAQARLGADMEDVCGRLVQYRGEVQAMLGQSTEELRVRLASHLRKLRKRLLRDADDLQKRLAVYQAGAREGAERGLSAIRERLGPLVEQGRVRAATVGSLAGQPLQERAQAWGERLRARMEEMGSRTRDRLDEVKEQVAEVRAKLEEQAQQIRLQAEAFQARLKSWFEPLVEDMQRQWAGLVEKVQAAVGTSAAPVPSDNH
“Voltage-dependent anion-selective channel 1 (VDAC1) (from UniProt P21796 1-283) (natural protein)”: the fold change of the target/APOE band against APOE3-transfected cells was 1.2 fold. B1: the fold change of the target/APOE band against APOE3-transfected cells came to 1.29 fold.

In turn, B2 gave a fold change of the target/APOE band against APOE3-transfected cells of 2.11 fold.

Source of the values: PMC11476584.
